# Reference: article PMC4814101
# Columns and labels:
# [1] = target: Bothropstoxin I (Bothrops jararacussu) (UniProt Q90249); assay: SPR; Biacore T200; […]; 30 μL/min, 37°C; running buffer 0.1 M phosphate, 27 mM KCl, 1.37 M NaCl, pH 7.4; 1:1 Langmuir model
# [2] = target: Bothropstoxin II (Bothrops jararacussu) (UniProt P45881); assay: as above
# Chain of UniProt P45881 (P45881 17-138): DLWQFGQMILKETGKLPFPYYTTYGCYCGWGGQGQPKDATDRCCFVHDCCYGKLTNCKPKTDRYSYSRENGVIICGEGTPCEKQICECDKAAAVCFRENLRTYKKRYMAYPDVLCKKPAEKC
# Chain of UniProt Q90249 (Q90249 17-137): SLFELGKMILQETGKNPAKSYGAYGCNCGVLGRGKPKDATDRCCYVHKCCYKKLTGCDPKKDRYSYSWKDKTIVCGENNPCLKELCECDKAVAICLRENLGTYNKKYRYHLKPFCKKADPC
Substance,Kd [1] [µM],koff [1] [s⁻¹],kon [1] [M⁻¹ s⁻¹],Kd [2] [µM],koff [2] [s⁻¹],kon [2] [M⁻¹ s⁻¹]
VHH KC329718,0.0539,0.0346,642000,0.77,0.258,335000
VHH KF498607,0.629,0.162,257000,,0.516,184000
VHH KF498608,0.668,0.119,179000,0.0427,0.0302,
